Tested on: Escherichia coli TOP10
Test: shrunken log2 fold change of peptide-encoding DNA abundance (4.5 h post-induction vs induction); higher = less antimicrobial activity (less host growth inhibition)
Settings: time post-induction: 4.5 h; library: site-saturation at positions 5, 18, 19, 20
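Also: peptides expressed intracellularly from a pBAD plasmid library in pooled LB shake-flask culture, induced with 0.3% L-arabinose, DNA abundance read by NGS, three biological replicates, DESeq2 with apeglm shrinkage.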

Row | Sequence | shrunken log2 fold change
1 | RRIRFRPPRLPRPRPRPALNPRP | 0.0855
2 | RRIRFRPPRLPRPRPRPANHPRP | -0.264
3 | RRIRFRPPRLPRPRPRPANKPRP | -0.546
4 | RRIRFRPPRLPRPRPRPAQFPRP | 0.156
5 | RRIRFRPPRLPRPRPRPAQIPRP | -0.00279
6 | RRIRFRPPRLPRPRPRPAQPPRP | 0.277
7 | RRIRFRPPRLPRPRPRPATCPRP | 0.00724
8 | RRIRFRPPRLPRPRPRPAWKPRP | -0.284
9 | RRIRFRPPRLPRPRPRPAWSPRP | 0.116
10 | RRIRFRPPRLPRPRPRPAYDPRP | -0.293
11 | RRIRFRPPRLPRPRPRPAYPPRP | -0.412
12 | RRIRFRPPRLPRPRPRPCADPRP | -0.102
13 | RRIRFRPPRLPRPRPRPCAQPRP | -0.077
14 | RRIRFRPPRLPRPRPRPCDAPRP | -0.312
15 | RRIRFRPPRLPRPRPRPCDMPRP | -0.00291
16 | RRIRFRPPRLPRPRPRPCDYPRP | -0.112
17 | RRIRFRPPRLPRPRPRPCECPRP | -0.138
18 | RRIRFRPPRLPRPRPRPCENPRP | 0.015
19 | RRIRFRPPRLPRPRPRPCGTPRP | -0.207
20 | RRIRFRPPRLPRPRPRPCHHPRP | -0.0196
21 | RRIRFRPPRLPRPRPRPCHVPRP | 0.0269
22 | RRIRFRPPRLPRPRPRPCIMPRP | -0.953
23 | RRIRFRPPRLPRPRPRPCLMPRP | -0.379
24 | RRIRFRPPRLPRPRPRPCLRPRP | -0.205
25 | RRIRFRPPRLPRPRPRPCLTPRP | -0.134

Row | Sequence | shrunken log2 fold change
26 | RRIRFRPPRLPRPRPRPCNCPRP | -0.166
27 | RRIRFRPPRLPRPRPRPCNDPRP | -0.122
28 | RRIRFRPPRLPRPRPRPCNRPRP | -0.111
29 | RRIRFRPPRLPRPRPRPCQLPRP | -0.938
30 | RRIRFRPPRLPRPRPRPCQQPRP | 0.0307
31 | RRIRFRPPRLPRPRPRPCSFPRP | -0.349
32 | RRIRFRPPRLPRPRPRPCSKPRP | -0.152
33 | RRIRFRPPRLPRPRPRPCSMPRP | -0.343
34 | RRIRFRPPRLPRPRPRPCSTPRP | -0.177
35 | RRIRFRPPRLPRPRPRPCTIPRP | -0.15
36 | RRIRFRPPRLPRPRPRPCVDPRP | 0.0365
37 | RRIRFRPPRLPRPRPRPCVQPRP | -0.182
38 | RRIRFRPPRLPRPRPRPCVVPRP | -0.379
39 | RRIRFRPPRLPRPRPRPCWKPRP | -0.0141
40 | RRIRFRPPRLPRPRPRPCYEPRP | -0.228
41 | RRIRFRPPRLPRPRPRPDCLPRP | -0.0266
42 | RRIRFRPPRLPRPRPRPDCNPRP | -0.179
43 | RRIRFRPPRLPRPRPRPDDNPRP | -0.137
44 | RRIRFRPPRLPRPRPRPDIVPRP | -0.0567
45 | RRIRFRPPRLPRPRPRPDKCPRP | -0.18
46 | RRIRFRPPRLPRPRPRPDLDPRP | -0.0913
47 | RRIRFRPPRLPRPRPRPDLPPRP | -0.0804
48 | RRIRFRPPRLPRPRPRPDNAPRP | -0.167
49 | RRIRFRPPRLPRPRPRPDNLPRP | 0.0632
50 | RRIRFRPPRLPRPRPRPDPEPRP | -0.0327

Row | Sequence | shrunken log2 fold change
51 | RRIRFRPPRLPRPRPRPDPHPRP | 0.137
52 | RRIRFRPPRLPRPRPRPDPRPRP | 0.182
53 | RRIRFRPPRLPRPRPRPDRQPRP | 0.0398
54 | RRIRFRPPRLPRPRPRPDSYPRP | -0.236
55 | RRIRFRPPRLPRPRPRPDVVPRP | -0.181
56 | RRIRFRPPRLPRPRPRPEAAPRP | 0.965
57 | RRIRFRPPRLPRPRPRPEALPRP | 0.0209
58 | RRIRFRPPRLPRPRPRPEEHPRP | -0.0677
59 | RRIRFRPPRLPRPRPRPEENPRP | -0.00844
60 | RRIRFRPPRLPRPRPRPEEQPRP | 0.162
61 | RRIRFRPPRLPRPRPRPEGCPRP | 0.013
62 | RRIRFRPPRLPRPRPRPEGVPRP | -0.175
63 | RRIRFRPPRLPRPRPRPEIGPRP | -0.0537
64 | RRIRFRPPRLPRPRPRPEKYPRP | -0.397
65 | RRIRFRPPRLPRPRPRPELWPRP | 0.677
66 | RRIRFRPPRLPRPRPRPEMDPRP | -0.00136
67 | RRIRFRPPRLPRPRPRPEMLPRP | 0.0583
68 | RRIRFRPPRLPRPRPRPENFPRP | 0.0164
69 | RRIRFRPPRLPRPRPRPERDPRP | -0.0622
70 | RRIRFRPPRLPRPRPRPERQPRP | -0.000475
71 | RRIRFRPPRLPRPRPRPETWPRP | 0.0692
72 | RRIRFRPPRLPRPRPRPEVGPRP | 0.296
73 | RRIRFRPPRLPRPRPRPEYKPRP | -0.0678
74 | RRIRFRPPRLPRPRPRPFAAPRP | 0.114
75 | RRIRFRPPRLPRPRPRPFCSPRP | -0.486

Row | Sequence | shrunken log2 fold change
76 | RRIRFRPPRLPRPRPRPFDNPRP | -0.31
77 | RRIRFRPPRLPRPRPRPFEVPRP | -0.571
78 | RRIRFRPPRLPRPRPRPFFIPRP | -0.429
79 | RRIRFRPPRLPRPRPRPFGYPRP | -0.113
80 | RRIRFRPPRLPRPRPRPFHEPRP | -0.649
81 | RRIRFRPPRLPRPRPRPFHIPRP | -0.663
82 | RRIRFRPPRLPRPRPRPFHLPRP | -0.391
83 | RRIRFRPPRLPRPRPRPFKCPRP | -2.13
84 | RRIRFRPPRLPRPRPRPFKKPRP | -0.119
85 | RRIRFRPPRLPRPRPRPFLYPRP | -1.04
86 | RRIRFRPPRLPRPRPRPFMIPRP | -0.456
87 | RRIRFRPPRLPRPRPRPFPFPRP | -0.177
88 | RRIRFRPPRLPRPRPRPFPMPRP | -0.0754
89 | RRIRFRPPRLPRPRPRPFQEPRP | -0.00353
90 | RRIRFRPPRLPRPRPRPFREPRP | -0.0914
91 | RRIRFRPPRLPRPRPRPFSSPRP | -0.468
92 | RRIRFRPPRLPRPRPRPFTQPRP | 0.0192
93 | RRIRFRPPRLPRPRPRPFTWPRP | -0.816
94 | RRIRFRPPRLPRPRPRPFVCPRP | -0.398
95 | RRIRFRPPRLPRPRPRPFVTPRP | -0.442
96 | RRIRFRPPRLPRPRPRPGAFPRP | -0.162
97 | RRIRFRPPRLPRPRPRPGATPRP | 0.357
98 | RRIRFRPPRLPRPRPRPGAWPRP | -0.15
99 | RRIRFRPPRLPRPRPRPGCDPRP | 0.106
100 | RRIRFRPPRLPRPRPRPGCLPRP | -0.0626

Row | Sequence | shrunken log2 fold change
101 | RRIRFRPPRLPRPRPRPGDHPRP | 0.0283
102 | RRIRFRPPRLPRPRPRPGDKPRP | 0.215
103 | RRIRFRPPRLPRPRPRPGDNPRP | -0.0236
104 | RRIRFRPPRLPRPRPRPGEMPRP | 0.123
105 | RRIRFRPPRLPRPRPRPGEQPRP | -0.0185
106 | RRIRFRPPRLPRPRPRPGETPRP | 0.138
107 | RRIRFRPPRLPRPRPRPGIIPRP | -0.139
108 | RRIRFRPPRLPRPRPRPGIPPRP | -0.183
109 | RRIRFRPPRLPRPRPRPGIVPRP | -0.0228
110 | RRIRFRPPRLPRPRPRPGKSPRP | 0.0865
111 | RRIRFRPPRLPRPRPRPGLEPRP | -0.0646
112 | RRIRFRPPRLPRPRPRPGNFPRP | -0.133
113 | RRIRFRPPRLPRPRPRPGNKPRP | -0.344
114 | RRIRFRPPRLPRPRPRPGPRPRP | 0.618
115 | RRIRFRPPRLPRPRPRPGQPPRP | 0.199
116 | RRIRFRPPRLPRPRPRPGRMPRP | 0.0574
117 | RRIRFRPPRLPRPRPRPGSIPRP | -0.235
118 | RRIRFRPPRLPRPRPRPGTSPRP | -0.0716
119 | RRIRFRPPRLPRPRPRPGVDPRP | -0.145
120 | RRIRFRPPRLPRPRPRPGWDPRP | 0.0298
121 | RRIRFRPPRLPRPRPRPGYDPRP | -0.292
122 | RRIRFRPPRLPRPRPRPGYWPRP | 0.0724
123 | RRIRFRPPRLPRPRPRPHADPRP | 0.0798
124 | RRIRFRPPRLPRPRPRPHAEPRP | -0.00295
125 | RRIRFRPPRLPRPRPRPHCPPRP | -0.629

Row | Sequence | shrunken log2 fold change
126 | RRIRFRPPRLPRPRPRPHCRPRP | -0.0499
127 | RRIRFRPPRLPRPRPRPHDFPRP | -0.199
128 | RRIRFRPPRLPRPRPRPHDLPRP | -0.203
129 | RRIRFRPPRLPRPRPRPHDPPRP | -0.1
130 | RRIRFRPPRLPRPRPRPHDWPRP | 0.0906
131 | RRIRFRPPRLPRPRPRPHEQPRP | 0.0928
132 | RRIRFRPPRLPRPRPRPHHKPRP | -0.462
133 | RRIRFRPPRLPRPRPRPHIKPRP | -0.793
134 | RRIRFRPPRLPRPRPRPHIPPRP | -0.289
135 | RRIRFRPPRLPRPRPRPHISPRP | -0.419
136 | RRIRFRPPRLPRPRPRPHLLPRP | -0.428
137 | RRIRFRPPRLPRPRPRPHLNPRP | -0.624
138 | RRIRFRPPRLPRPRPRPHLVPRP | -0.33
139 | RRIRFRPPRLPRPRPRPHMNPRP | -0.774
140 | RRIRFRPPRLPRPRPRPHMPPRP | -0.0659
141 | RRIRFRPPRLPRPRPRPHNCPRP | -0.3
142 | RRIRFRPPRLPRPRPRPHPAPRP | 0.0971
143 | RRIRFRPPRLPRPRPRPHPKPRP | 0.827
144 | RRIRFRPPRLPRPRPRPHPNPRP | -0.31
145 | RRIRFRPPRLPRPRPRPHPVPRP | -0.141
146 | RRIRFRPPRLPRPRPRPHRQPRP | -0.228
147 | RRIRFRPPRLPRPRPRPHTNPRP | -0.453
148 | RRIRFRPPRLPRPRPRPHTTPRP | -0.155
149 | RRIRFRPPRLPRPRPRPHVMPRP | -0.288
150 | RRIRFRPPRLPRPRPRPHWGPRP | -0.0695

Source: the supplement of paper PMC9112550, “Optimization of the antimicrobial peptide Bac7 by deep mutational scanning” (BMC Biology, 2022)
